Reference: publication PMC12328794 (Communications Biology, 2025)

Legend:
[1] = biological target: the molecule itself; experiment: AUC; sedimentation velocity, 42,000 rpm, 20 °C, 20 mM Tris-HCl pH 7.5, 150 mM NaCl, 0.5 mM TCEP; c(s) distribution (SEDFIT); oligomeric state of the protein alone
[2] = biological target: T1, cytosolic domain of human Fis1 (Fis1_ΔTM, residues 1−123) (human, UniProt Q9Y3D6 1-123); experiment: SPR; Fis1_ΔTM WT or mutants immobilised by amine coupling; Bap31 constructs flowed at 30 μl/min; 25 °C; 20 mM HEPES pH 7.5, 100 mM NaCl, 0.005% Tween 20; BSA reference subtracted; equilibrium analysis; settings: both partners purified
T1 construct: mitochondrial fission protein 1 (Fis1), human, cytosolic domain with the C-terminal TM region truncated, residues 1-123; pQlinkH vector: N-terminal polyhistidine tag followed by a TEV site; also called Fis1_ΔTM WT; Fis1_WT; source: E. coli Rosetta2(DE3), purified (Ni-NTA, SEC)
T1 sequence (Q9Y3D6 1-123, stated change not applied): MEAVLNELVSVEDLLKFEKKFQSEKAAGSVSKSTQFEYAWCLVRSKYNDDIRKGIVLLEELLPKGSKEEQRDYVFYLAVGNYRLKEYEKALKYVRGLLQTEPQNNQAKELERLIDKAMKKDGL

B1: Bap31 coiled-coil 2 (Bap31_CC2, residues 168−246) (domain or fragment, human, UniProt P51572 168-246, looked up)
chain: LDVGNAEVKLEEENRSLKADLQKLKDELASTKQKLEKAENQVLAMRKQSEGLTKEYDRLLEEHAKLQAAVDGPMDKKEE
notes: B-cell receptor-associated protein 31 (Bap31), human, coiled-coil 2, residues 168-246; source: E. coli Rosetta2(DE3), purified (Ni-NTA, SEC)
With B1 the “stoichiometry N” value [1] was roughly 2.

B2: Bap31 coiled-coil 2 (Bap31_CC2, residues 168−246) WT (domain or fragment, human, UniProt P51572 168-246, looked up)
chain: B1 chain
notes: B-cell receptor-associated protein 31 (Bap31), human, coiled-coil 2, residues 168-246; also called Bap31_CC2 WT; Bap31_WT; source: E. coli Rosetta2(DE3), purified (Ni-NTA, SEC)
B2 gave a Kd [2] of 58 µM.

B3: Bap31_vDED (residues 168−233 + SAAA) (domain or fragment, human)
chain: LDVGNAEVKLEEENRSLKADLQKLKDELASTKQKLEKAENQVLAMRKQSEGLTKEYDRLLEEHAKLSAAA
notes: B-cell receptor-associated protein 31 (Bap31), human, variant of the death effector domain, residues 168-233; also called Bap31_vDED+SAAA; Bap31_168-233+SAAA; source: E. coli Rosetta2(DE3), purified (Ni-NTA, SEC)
For B3, the “stoichiometry N” value [1] was roughly 2.
